{"source": "patent US20120289467A1", "about": "(UNIVERSITY OF MARYLAND BALTIMORE, published 2012)", "key": {"[1]": {"molecular_target": "T1, VE-cadherin fragment, P33151", "T1 chain": "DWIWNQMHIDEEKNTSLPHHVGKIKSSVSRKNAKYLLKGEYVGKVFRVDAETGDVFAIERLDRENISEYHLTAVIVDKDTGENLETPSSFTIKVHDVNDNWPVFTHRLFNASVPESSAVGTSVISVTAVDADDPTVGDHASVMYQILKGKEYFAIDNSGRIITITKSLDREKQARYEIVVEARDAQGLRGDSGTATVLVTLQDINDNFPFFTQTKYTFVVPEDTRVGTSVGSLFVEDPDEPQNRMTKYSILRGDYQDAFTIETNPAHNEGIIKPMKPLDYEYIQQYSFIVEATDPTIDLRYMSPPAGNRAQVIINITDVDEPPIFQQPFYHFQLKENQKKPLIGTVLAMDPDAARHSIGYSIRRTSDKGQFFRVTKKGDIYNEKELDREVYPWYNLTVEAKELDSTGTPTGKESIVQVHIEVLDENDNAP", "assay": "plate assay read as absorbance at 450 nm, VE-cad(1-5) concentration varied (0-0.5 µM); format not described in the text"}, "VE-cadherin fragment [2]": {"molecular_target": "T2, VE-cadherin fragment (UniProt P33151 48-477, limits assumed)", "T2 construct": "also called VE-caherin; immobilized VE-cadherin fragment", "T2 sequence (looked up)": "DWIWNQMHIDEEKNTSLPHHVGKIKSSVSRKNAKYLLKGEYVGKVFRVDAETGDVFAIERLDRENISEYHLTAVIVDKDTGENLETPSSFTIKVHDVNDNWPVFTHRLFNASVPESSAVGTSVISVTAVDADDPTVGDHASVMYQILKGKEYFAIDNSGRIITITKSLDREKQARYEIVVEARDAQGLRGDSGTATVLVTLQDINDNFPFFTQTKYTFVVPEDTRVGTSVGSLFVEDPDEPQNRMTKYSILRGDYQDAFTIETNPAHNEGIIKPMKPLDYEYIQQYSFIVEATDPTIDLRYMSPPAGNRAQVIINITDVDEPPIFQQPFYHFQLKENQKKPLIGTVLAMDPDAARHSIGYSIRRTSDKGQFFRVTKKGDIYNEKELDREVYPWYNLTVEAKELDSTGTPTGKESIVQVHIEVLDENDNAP", "assay": "SPR (BIAcore), ratio of Kd values, reference β15-42", "description": "(§1) To test binding activities of fibrin beta chain derived peptides of the invention to VE-caherin, surface plasmon resonance (SPR) methods are, for example, used. SPR experiments are performed using, for example, a BIAcore 3000 biosensor (BIAcore AB, Uppsala, Sweden), which can be used to measure the association/dissociation of peptides or proteins in real-time (see, for example, Karlsson, R., and Falt, A. J. Immunol. Methods (1997) 200, 121-133; Hall, D. Anal. Biochem. (2001) 288, 109-125; see also Gorlatov et al. Biochemistry (2002) 41, 4107-4116 for other VE-cadherin binding assays including, for example, SPR IAsys Analysis based assays and ELISA based assays). An exemplary method is described in the following passage. VE-cadherin fragment is covalently coupled via epsilon-amino groups to the activated surface of a CM5 biosensor chip by the procedure described by, for example, Karlsson, R., and Falt, A. (J. Immunol. Methods (1997) 200, 121-133; see also Gorlatov et al. Biochemistry (2002) 41, 4107-4116). […] Samples comprising, for example, fibrin beta chain derived peptides β15-42, β15-64, and (β15-66)2, at different concentrations are injected in duplicate in at least three separate experiments and the association/dissociation between the immobilized and the added peptides is monitored as the change in the SPR response. […]"}, "VE-cadherin fragment [3]": {"molecular_target": "T2, VE-cadherin fragment", "assay": "SPR (BIAcore), VE-cadherin fragment immobilized, peptide added up to 200 nM; dimeric peptide, added up to 200 nM", "description": "as §1"}, "VE-cadherin fragment [4]": {"molecular_target": "T2, VE-cadherin fragment", "assay": "not stated on the sheet; the legend calls it the dissociation constant for the interaction with VE-cadherin"}, "VE-cadherin fragment [5]": {"molecular_target": "T2, VE-cadherin fragment", "assay": "SPR (BIAcore), VE-cadherin fragment immobilized; monomeric peptide", "description": "as §1"}, "VE-cadherin fragment [6]": {"molecular_target": "T2, VE-cadherin fragment", "assay": "not stated on the sheet; the legend calls it the dissociation constant for the interaction with VE-cadherin", "remark": "listed apart in the source"}}, "note": "No end group written: not given here.", "data": [{"binder": "GHRPLDKKREEAPSLRPAPPPISYCG (also: homodimer linked through added Cys25)", "note": "[(β15-40)2 dimer peptide]", "values": [{"measurement": "EC50 (read off the curve)", "setting": "[1]", "value": 0.04, "unit": "µM"}]}, {"binder": "(β15-66)2 dimer peptide (also: homodimer, Cys65-Cys65 disulfide, Homodimer of two β15-66 chains, disulfide-linked via Cys65; Gly66 is not natural; also called dimeric (β15-66)2) peptide: GHRPLDKKREEAPSLRPAPPPISGGGYRARPAKAAATQKKVERKAPDAGGCG", "values": [{"measurement": "fold increase in affinity against β15-42", "setting": "VE-cadherin fragment [2]", "value": 3600, "unit": "fold"}, {"measurement": "Kd", "setting": "VE-cadherin fragment [3]", "value": 70, "unit": "nM"}, {"measurement": "Kd", "setting": "VE-cadherin fragment [4]", "value": 27, "unit": "nM"}]}, {"binder": "GHRPLDKKREEAPSLRPAPPPISGGGYR (also called monomeric β15-42)", "note": "[β15-42 monomeric peptide]", "values": [{"measurement": "Kd", "setting": "VE-cadherin fragment [5]", "value": 252, "unit": "µM"}]}, {"binder": "GHRPLDKKREEAPSLRPAPPPISGGGYRCG (also: homodimer, Cys43-Cys43 disulfide, Synthetic homodimer of two identical 30-residue chains, linked by a Cys43-Cys43 disulfide bond; also called dimeric (β15-44)2)", "note": "[(β15-44)2 dimer peptide]", "values": [{"measurement": "Kd", "setting": "VE-cadherin fragment [6]", "value": 21, "unit": "nM"}]}]}
